Measured values taken from patent US20170044259A1 (CYTOMX THERAPEUTICS, published 2017).
Changes are numbered by the printed parent chain.

Assays:
nivolumab = biological target: T1, nivolumab; assay: bacterial display clone with labeled NV1
T1 construct: also called NV1; NV1 nivo

J43v2 mIgG2a = biological target: T2, J43v2 mIgG2a; assay: bacterial display clone with DyLight 650 labeled J43v2 m2a
T2 construct: also called J43 m2a; J43v2 m2a

pembrolizumab = biological target: T3, pembrolizumab; assay: bacterial display clone with labeled PM1
T3 construct: also called PM1; PM1 AB
T3 sequence (VH, as listed by the source, chain 1 of 2): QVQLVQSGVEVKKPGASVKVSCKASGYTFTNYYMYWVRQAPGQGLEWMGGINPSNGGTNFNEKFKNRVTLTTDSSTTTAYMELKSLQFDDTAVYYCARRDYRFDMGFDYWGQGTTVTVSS
T3 sequence (VL, as listed by the source, chain 2 of 2): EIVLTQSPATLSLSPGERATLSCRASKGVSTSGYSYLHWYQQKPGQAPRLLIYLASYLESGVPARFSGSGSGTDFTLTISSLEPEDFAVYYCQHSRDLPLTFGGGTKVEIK

[1] = biological target: T4, human PD-1-Fc (R and D systems, Minneapolis, Minn.) (human, UniProt Q15116 25-167); assay: plate ELISA on human PD-1-Fc; reference A1.5
T4 construct: bought; also called hPD-1-Fc; hPD-1; not shown: Fc part of the bought fusion
T4 sequence (Q15116 25-167 limits assumed): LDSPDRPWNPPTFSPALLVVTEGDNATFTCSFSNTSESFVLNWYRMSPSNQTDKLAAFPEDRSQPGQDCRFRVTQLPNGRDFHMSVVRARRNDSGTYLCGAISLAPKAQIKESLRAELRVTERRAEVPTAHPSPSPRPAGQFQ

[2] = biological target: T4, human PD-1-Fc (R and D systems, …); assay: plate ELISA on human PD-1-Fc; reference A1.5; remark: listed apart in the source
[3] = biological target: T4, human PD-1-Fc (R and D systems, …); assay: plate ELISA on human PD-1-Fc; apparent KD

T2 sequence (VH, as listed by the source, chain 1 of 2): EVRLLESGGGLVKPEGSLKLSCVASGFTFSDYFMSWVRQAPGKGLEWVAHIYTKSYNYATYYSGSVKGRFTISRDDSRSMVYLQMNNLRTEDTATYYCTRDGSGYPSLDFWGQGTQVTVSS
T2 sequence (VL, as listed by the source, chain 2 of 2): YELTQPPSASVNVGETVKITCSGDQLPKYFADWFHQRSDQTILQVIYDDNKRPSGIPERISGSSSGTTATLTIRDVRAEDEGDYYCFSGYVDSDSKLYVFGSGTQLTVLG
T1 sequence (VH, as listed by the source, chain 1 of 2): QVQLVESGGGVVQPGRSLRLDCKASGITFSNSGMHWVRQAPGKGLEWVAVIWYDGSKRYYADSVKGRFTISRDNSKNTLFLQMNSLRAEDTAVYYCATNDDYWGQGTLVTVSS
T1 sequence (VL, as listed by the source, chain 2 of 2): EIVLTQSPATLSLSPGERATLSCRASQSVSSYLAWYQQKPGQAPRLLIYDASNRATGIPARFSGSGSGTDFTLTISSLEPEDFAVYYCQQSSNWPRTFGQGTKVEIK

RGCPDFNPPSHCYTA (bacterial display clone) [masking moiety NV08]: binds (nivolumab).

LPRCPDHPIKCIETK (bacterial display clone) [masking moiety NV06]: binds (nivolumab).

B1: masking moiety MP011 (peptide)
peptide: SRQICADYNCHNKYK
notes: bacterial display clone; also called MP11
B1: binds (J43v2 mIgG2a).

B2: masking moiety MP010 (peptide)
peptide: IPCHHSADHKHKCTS
notes: bacterial display clone; also called MP10
B2: binds (J43v2 mIgG2a).

B3: masking moiety PM01 (peptide)
peptide: GCDFTSAKHNCGSGW
notes: bacterial display clone; also called PM001
B3: binds (pembrolizumab).

HCIPDFTSAAGDCMR (bacterial display clone) [masking moiety PM12]: binds (pembrolizumab).

FCAVMFDFLSDRCLH (bacterial display clone) [masking moiety PM03]: binds (pembrolizumab).

B4: PD-1 1.5 PD017 2001 (antibody, human IgG4 S228P, kappa)
heavy: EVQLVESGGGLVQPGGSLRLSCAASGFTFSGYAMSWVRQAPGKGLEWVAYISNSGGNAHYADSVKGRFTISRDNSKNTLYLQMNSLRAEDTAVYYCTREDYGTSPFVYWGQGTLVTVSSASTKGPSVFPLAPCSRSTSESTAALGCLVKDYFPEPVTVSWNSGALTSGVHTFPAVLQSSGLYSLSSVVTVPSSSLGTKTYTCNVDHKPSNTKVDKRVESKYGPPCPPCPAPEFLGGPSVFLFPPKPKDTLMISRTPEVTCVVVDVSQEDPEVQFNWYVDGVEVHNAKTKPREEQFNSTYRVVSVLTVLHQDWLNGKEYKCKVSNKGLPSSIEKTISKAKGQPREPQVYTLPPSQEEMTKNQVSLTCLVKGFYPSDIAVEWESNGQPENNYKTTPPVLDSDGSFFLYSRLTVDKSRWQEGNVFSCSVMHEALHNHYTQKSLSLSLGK
light: QGQSGQGTTCNLYQQSSMFCNAGGGSSGGSISSGLLSGRSDNHGGGSDIQLTQSPSSLSASVGDRVTITCRASESVDAYGISFMNWFQQKPGKAPKLLIYAASNQGSGVPSRFSGSGSGTDFTLTISSMQPEDFATYYCQQSKDVPWTFGQGTKLEIKRTVAAPSVFIFPPSDEQLKSGTASVVCLLNNFYPREAKVQWKVDNALQSGNSQESVTEQDSKDSTYSLSSTLTLSKADYEKHKVYACEVTHQGLSSPVTKSFNRGEC
notes: also called PD-17
In the case of B4, the “Masking Efficiency” value [1] is reported as 12, the “ME (masking efficiency, Kd of the activatable antibody divided by Kd of the parental antibody)” value [2] is reported as 20 and the Kd [3] is reported as 22 nM.

B5: PD-1 1.5 PD026 2001 (antibody, human IgG4 S228P, kappa)
heavy: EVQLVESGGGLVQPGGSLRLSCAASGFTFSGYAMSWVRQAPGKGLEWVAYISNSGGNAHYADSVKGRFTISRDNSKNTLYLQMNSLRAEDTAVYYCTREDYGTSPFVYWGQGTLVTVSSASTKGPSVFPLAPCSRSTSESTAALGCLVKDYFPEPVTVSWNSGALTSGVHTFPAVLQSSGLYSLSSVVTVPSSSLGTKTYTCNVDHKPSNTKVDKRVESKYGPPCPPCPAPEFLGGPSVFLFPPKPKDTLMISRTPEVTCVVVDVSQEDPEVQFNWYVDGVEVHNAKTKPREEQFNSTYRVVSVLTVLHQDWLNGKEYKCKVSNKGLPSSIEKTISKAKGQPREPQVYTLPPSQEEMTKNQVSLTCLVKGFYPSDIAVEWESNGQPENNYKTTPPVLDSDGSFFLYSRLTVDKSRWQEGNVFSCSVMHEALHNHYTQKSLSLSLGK
light: B4 light with T8G, T9M, N11S, L12A, Q14A, Q15Y, M18K, F19L, N21T, A22I
For B5, the “ME (masking efficiency, Kd of the activatable antibody divided by Kd of the parental antibody)” value [2] was 20.

B6: PD-1 1.5 PD025 2001 (antibody, human IgG4 S228P, kappa)
heavy: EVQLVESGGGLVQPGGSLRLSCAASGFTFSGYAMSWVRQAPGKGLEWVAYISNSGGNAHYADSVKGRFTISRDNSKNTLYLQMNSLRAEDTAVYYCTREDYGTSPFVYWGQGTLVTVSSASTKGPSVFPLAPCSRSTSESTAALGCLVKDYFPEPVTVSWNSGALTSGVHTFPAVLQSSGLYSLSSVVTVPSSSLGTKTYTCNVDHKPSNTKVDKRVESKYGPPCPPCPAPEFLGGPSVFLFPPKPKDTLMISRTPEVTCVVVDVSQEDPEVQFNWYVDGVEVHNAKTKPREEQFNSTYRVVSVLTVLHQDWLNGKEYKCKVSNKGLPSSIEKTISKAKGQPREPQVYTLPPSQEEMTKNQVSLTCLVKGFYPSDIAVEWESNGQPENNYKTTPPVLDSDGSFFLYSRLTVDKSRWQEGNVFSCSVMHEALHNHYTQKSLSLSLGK
light: B4 light with T8S, T9R, N11S, L12V, Q14E, Q15V, M18G, F19L, N21D, A22W
For B6, the “ME (masking efficiency, Kd of the activatable antibody divided by Kd of the parental antibody)” value [2] was 30.

B7: masking moiety MP004 (peptide)
peptide: SDHKCKLQNCMNTKV
notes: bacterial display clone; also called MP04
B7: binds (J43v2 mIgG2a).

ASYRCPDYKCSHTKH (bacterial display clone) [masking moiety NV05]: binds (nivolumab).

B8: masking moiety MP002 (peptide)
peptide: ILCPEDPWGHKCKLP
notes: bacterial display clone; also called MP02; MP-02
B8: binds (J43v2 mIgG2a).

B9: masking moiety MP005 (peptide)
peptide: PGNCHPMQKEMCQFI
notes: bacterial display clone; also called MP05
B9: binds (J43v2 mIgG2a).

WTYENCWASCQPHLE (bacterial display clone) [masking moiety PM08]: binds (pembrolizumab).

PRPQCHHRHNCPDHP (bacterial display clone) [masking moiety NV03]: binds (nivolumab).

B10: masking moiety MP007 (peptide)
peptide: TIPRCGQHPKCKDTL
notes: bacterial display clone; also called MP07
B10: binds (J43v2 mIgG2a).

RGCKKHTISTLTCPD (bacterial display clone) [masking moiety NV12]: binds (nivolumab).

B11: masking moiety MP014 (peptide)
peptide: ANSCLAVEHKCKHNY
notes: bacterial display clone; also called MP14
B11: binds (J43v2 mIgG2a).

B12: A1.5 PD34 2001 (antibody, human IgG4 S228P, kappa)
heavy: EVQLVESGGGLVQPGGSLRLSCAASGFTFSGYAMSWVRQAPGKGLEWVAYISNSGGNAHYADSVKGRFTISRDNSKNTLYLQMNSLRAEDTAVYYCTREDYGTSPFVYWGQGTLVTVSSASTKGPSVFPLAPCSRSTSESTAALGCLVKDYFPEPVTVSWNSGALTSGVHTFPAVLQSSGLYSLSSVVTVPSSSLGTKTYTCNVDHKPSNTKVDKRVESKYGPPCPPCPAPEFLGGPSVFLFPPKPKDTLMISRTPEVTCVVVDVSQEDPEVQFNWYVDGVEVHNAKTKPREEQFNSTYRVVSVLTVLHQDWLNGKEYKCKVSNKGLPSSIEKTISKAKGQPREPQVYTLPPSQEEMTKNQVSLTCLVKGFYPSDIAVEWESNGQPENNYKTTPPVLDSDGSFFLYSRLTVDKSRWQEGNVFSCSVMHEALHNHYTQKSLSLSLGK
light: QGQSGQGTSYCSIEHYPCNTHHGGGSSGGSISSGLLSGRSDNHGGGSDIQLTQSPSSLSASVGDRVTITCRASESVDAYGISFMNWFQQKPGKAPKLLIYAASNQGSGVPSRFSGSGSGTDFTLTISSMQPEDFATYYCQQSKDVPWTFGQGTKLEIKRTVAAPSVFIFPPSDEQLKSGTASVVCLLNNFYPREAKVQWKVDNALQSGNSQESVTEQDSKDSTYSLSSTLTLSKADYEKHKVYACEVTHQGLSSPVTKSFNRGEC
notes: also called PD-1 1.5 PD034 2001; PD1 1.5 PD34 2001
For B12, the “ME (masking efficiency, Kd of the activatable antibody divided by Kd of the parental antibody)” value [2] was 42.

ELCGWQSFSGVCTSE (bacterial display clone) [masking moiety PM07]: binds (pembrolizumab).

B13: masking moiety NV01 (peptide)
peptide: RYCHAANPDRFCGIY
notes: bacterial display clone; also called NV001
B13: binds (nivolumab).

B14: masking moiety MP012 (peptide)
peptide: QPCNPQIDHKIKCIY
notes: bacterial display clone; also called MP12
B14: binds (J43v2 mIgG2a).

B15: PD-1 1.5 PD006 2001 (antibody, human IgG4 S228P, kappa)
heavy: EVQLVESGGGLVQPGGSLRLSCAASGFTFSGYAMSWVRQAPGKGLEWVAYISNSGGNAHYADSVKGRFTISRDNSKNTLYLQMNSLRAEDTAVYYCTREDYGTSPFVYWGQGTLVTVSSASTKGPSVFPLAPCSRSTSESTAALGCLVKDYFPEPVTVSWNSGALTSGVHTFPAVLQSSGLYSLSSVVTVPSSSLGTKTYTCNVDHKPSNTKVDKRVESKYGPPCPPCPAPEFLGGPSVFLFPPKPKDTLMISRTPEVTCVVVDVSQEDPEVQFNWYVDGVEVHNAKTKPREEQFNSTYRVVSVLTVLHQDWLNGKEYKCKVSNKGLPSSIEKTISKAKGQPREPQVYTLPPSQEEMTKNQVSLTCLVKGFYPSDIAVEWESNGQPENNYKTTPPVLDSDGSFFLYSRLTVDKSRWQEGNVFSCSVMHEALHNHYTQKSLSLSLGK
light: QGQSGQGAPRCYMFASYCKSQYGGGSSGGSISSGLLSGRSDNHGGGSDIQLTQSPSSLSASVGDRVTITCRASESVDAYGISFMNWFQQKPGKAPKLLIYAASNQGSGVPSRFSGSGSGTDFTLTISSMQPEDFATYYCQQSKDVPWTFGQGTKLEIKRTVAAPSVFIFPPSDEQLKSGTASVVCLLNNFYPREAKVQWKVDNALQSGNSQESVTEQDSKDSTYSLSSTLTLSKADYEKHKVYACEVTHQGLSSPVTKSFNRGEC
In the case of B15, the “Masking Efficiency” value [1] is reported as 39, the “ME (masking efficiency, Kd of the activatable antibody divided by Kd of the parental antibody)” value [2] is reported as 30 and the Kd [3] is reported as 71 nM.

B16: PD-1 1.5 PD028 2001 (antibody, human IgG4 S228P, kappa)
heavy: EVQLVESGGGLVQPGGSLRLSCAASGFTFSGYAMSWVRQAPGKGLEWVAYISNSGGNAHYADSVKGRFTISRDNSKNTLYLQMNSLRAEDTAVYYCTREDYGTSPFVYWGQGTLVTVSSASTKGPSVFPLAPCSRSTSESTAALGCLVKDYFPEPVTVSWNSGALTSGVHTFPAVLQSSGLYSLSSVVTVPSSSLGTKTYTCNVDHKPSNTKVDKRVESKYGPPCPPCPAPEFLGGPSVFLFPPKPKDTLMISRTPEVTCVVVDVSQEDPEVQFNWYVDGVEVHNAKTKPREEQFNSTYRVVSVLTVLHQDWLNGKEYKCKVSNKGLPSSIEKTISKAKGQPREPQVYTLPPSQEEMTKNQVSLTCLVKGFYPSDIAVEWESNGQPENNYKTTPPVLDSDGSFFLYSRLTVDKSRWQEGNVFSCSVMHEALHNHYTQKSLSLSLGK
light: B15 light with A8F, P9Q, R10P, Y12L, Y17S, K19F, S20T, Q21S, Y22K
With B16 the “ME (masking efficiency, Kd of the activatable antibody divided by Kd of the parental antibody)” value [2] was 25.

YTFGCPDRYCDRAAT (bacterial display clone) [masking moiety NV07]: binds (nivolumab).

B17: masking moiety MP008 (peptide)
peptide: ACRICQDHPKTKWNS
notes: bacterial display clone; also called MP08
B17: binds (J43v2 mIgG2a).

B18: masking moiety MP003 (peptide)
peptide: TNIWSCQTYCDHKHK
notes: bacterial display clone; also called MP03
B18: binds (J43v2 mIgG2a).

B19: masking moiety MP013 (peptide)
peptide: HYTICMTHNKCKDMA
notes: bacterial display clone; also called MP13
B19: binds (J43v2 mIgG2a).

B20: masking moiety MP009 (peptide)
peptide: LIQCTGNLDHKCKHY
notes: bacterial display clone; also called MP09
B20: binds (J43v2 mIgG2a).

PRVACGEPDLCYSNT (bacterial display clone) [masking moiety NV11]: binds (nivolumab).

LMCADLHYNHYNCKY (bacterial display clone) [masking moiety PM06]: binds (pembrolizumab).

MSCWDFSSAQGCGQH (bacterial display clone) [masking moiety PM05]: binds (pembrolizumab).

PNKPCPDLQCYVTNY (bacterial display clone) [masking moiety NV10]: binds (nivolumab).

ISHYCFSGKSCRD (bacterial display clone) [masking moiety PM11]: binds (pembrolizumab).

B21: masking moiety MP006 (peptide)
peptide: VEHLCYTHNKCKHPD
notes: bacterial display clone; also called MP06
B21: binds (J43v2 mIgG2a).

B22: masking moiety PM02 (peptide)
peptide: VGSNCWTGPACALTS
notes: bacterial display clone; also called PM002
B22: binds (pembrolizumab).

KLTEDFSSAA (bacterial display clone) [masking moiety PM09]: binds (pembrolizumab).

VGQSCFSGLVCDRQL (bacterial display clone) [masking moiety PM10]: binds (pembrolizumab).

KCSRPAHQNPDRCSR (bacterial display clone) [masking moiety NV04]: binds (nivolumab).

RDYCGPQSPDYCHEI (bacterial display clone) [masking moiety NV09]: binds (nivolumab).

B23: PD-1 1.5 PD009 2001 (antibody, human IgG4 S228P, kappa)
heavy: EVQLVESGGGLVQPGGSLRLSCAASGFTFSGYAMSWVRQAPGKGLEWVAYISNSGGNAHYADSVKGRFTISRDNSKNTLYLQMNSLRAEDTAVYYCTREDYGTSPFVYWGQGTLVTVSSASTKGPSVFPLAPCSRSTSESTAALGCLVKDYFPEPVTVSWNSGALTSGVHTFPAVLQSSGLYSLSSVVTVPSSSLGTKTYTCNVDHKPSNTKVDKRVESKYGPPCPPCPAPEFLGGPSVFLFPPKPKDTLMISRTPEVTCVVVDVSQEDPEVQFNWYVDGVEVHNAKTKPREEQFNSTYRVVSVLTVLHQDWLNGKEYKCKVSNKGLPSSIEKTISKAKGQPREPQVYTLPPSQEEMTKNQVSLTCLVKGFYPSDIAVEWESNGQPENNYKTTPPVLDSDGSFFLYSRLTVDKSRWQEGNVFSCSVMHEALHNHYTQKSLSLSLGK
light: QGQSGQGAPRTCYTYQCSSFYTGGGSSGGSISSGLLSGRSDNHGGGSDIQLTQSPSSLSASVGDRVTITCRASESVDAYGISFMNWFQQKPGKAPKLLIYAASNQGSGVPSRFSGSGSGTDFTLTISSMQPEDFATYYCQQSKDVPWTFGQGTKLEIKRTVAAPSVFIFPPSDEQLKSGTASVVCLLNNFYPREAKVQWKVDNALQSGNSQESVTEQDSKDSTYSLSSTLTLSKADYEKHKVYACEVTHQGLSSPVTKSFNRGEC
B23 was tested, and the “Masking Efficiency” value [1] was 6, the “ME (masking efficiency, Kd of the activatable antibody divided by Kd of the parental antibody)” value [2] was 2 and the Kd [3] was 10 nM.

B24: masking moiety NV02 (peptide)
peptide: PRVCSTDGGDYCLLP
notes: bacterial display clone; also called NV002
B24: binds (nivolumab).

B25: PD-1 1.5 PD012 2001 (antibody, human IgG4 S228P, kappa)
heavy: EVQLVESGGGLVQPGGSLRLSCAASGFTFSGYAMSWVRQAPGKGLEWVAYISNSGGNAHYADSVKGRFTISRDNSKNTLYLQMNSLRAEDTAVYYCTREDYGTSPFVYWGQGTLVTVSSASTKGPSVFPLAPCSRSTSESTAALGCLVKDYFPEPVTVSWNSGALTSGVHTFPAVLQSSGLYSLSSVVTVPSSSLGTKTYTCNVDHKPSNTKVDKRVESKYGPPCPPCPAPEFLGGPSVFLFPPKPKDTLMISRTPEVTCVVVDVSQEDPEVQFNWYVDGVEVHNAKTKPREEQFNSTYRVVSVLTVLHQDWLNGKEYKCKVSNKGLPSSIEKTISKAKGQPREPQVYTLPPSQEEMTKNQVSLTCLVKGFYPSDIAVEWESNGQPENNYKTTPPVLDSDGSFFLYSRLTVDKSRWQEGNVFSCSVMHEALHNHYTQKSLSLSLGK
light: QGQSGQGNWLDCQFYSECSVYGGGGSSGGSISSGLLSGRSDNHGGGSDIQLTQSPSSLSASVGDRVTITCRASESVDAYGISFMNWFQQKPGKAPKLLIYAASNQGSGVPSRFSGSGSGTDFTLTISSMQPEDFATYYCQQSKDVPWTFGQGTKLEIKRTVAAPSVFIFPPSDEQLKSGTASVVCLLNNFYPREAKVQWKVDNALQSGNSQESVTEQDSKDSTYSLSSTLTLSKADYEKHKVYACEVTHQGLSSPVTKSFNRGEC
notes: also called PD-12
With B25 the “Masking Efficiency” value [1] was 14, the “ME (masking efficiency, Kd of the activatable antibody divided by Kd of the parental antibody)” value [2] was 10 and the Kd [3] was 25 nM.

FCPPWLDYLGNKCMT (bacterial display clone) [masking moiety PM04]: binds (pembrolizumab).
